From the supplement of paper PMC10567573

B1: TEKT4 (parent)
chain: YARYHQAFADRDQSERQRHESQQL
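Note: lentivirally expressed fusions sorted by FACS into six bins by GFP to DsRed ratio, PSI derived from sequencing read proportions per bin multiplied by bin number.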

Variants of: B1
Experiment: protein stability index of a GFP-peptide fusion (GPS, HEK-293T) (PSI 1-6); higher = more stable
Settings: c terminus: a fixed tail appended
For YARYHQVFADRDQSERQRHESQQL, the protein stability index was 2.06. In the case of YARYHQIFADRDQSERQRHESQQL, the protein stability index is reported as 1.81. Work on YARYHQWFADRDQSERQRHESQQL yielded a protein stability index of 2.02. For YARYHQFFADRDQSERQRHESQQL, the protein stability index was 2.99. YARYHQDFADRDQSERQRHESQQL showed a protein stability index of 3.7. With YARYHQSFADRDQSERQRHESQQL the protein stability index was 3.2. With YARYHQLFADRDQSERQRHESQQL the protein stability index was 3.3. Work on YARYHQPFADRDQSERQRHESQQL yielded a protein stability index of 3.56. Variant YARYHQGFADRDQSERQRHESQQL has a protein stability index of 3.18. Variant YARYHQHFADRDQSERQRHESQQL has a protein stability index of 2.2. Variant YARYHQEFADRDQSERQRHESQQL has a protein stability index of 3.72. With YARYHQRFADRDQSERQRHESQQL the protein stability index was 3.5. Work on YARYHQKFADRDQSERQRHESQQL yielded a protein stability index of 3.25. YARYHQTFADRDQSERQRHESQQL gave a protein stability index of 3.48. In the case of YARYHQYFADRDQSERQRHESQQL, the protein stability index is reported as 1.69. Variant YARYHQCFADRDQSERQRHESQQL has a protein stability index of 2.88. In the case of YARYHQNFADRDQSERQRHESQQL, the protein stability index is reported as 3.07. Variant YARYHQQFADRDQSERQRHESQQL has a protein stability index of 3.03. YARWHQAFADRDQSERQRHESQQL gave a protein stability index of 1.6. With YARQHQAFADRDQSERQRHESQQL the protein stability index was 3.85. With YARSHQAFADRDQSERQRHESQQL the protein stability index was 3.44. With YARVHQAFADRDQSERQRHESQQL the protein stability index was 3.51. Variant YARTHQAFADRDQSERQRHESQQL has a protein stability index of 2.8. With YARNHQAFADRDQSERQRHESQQL the protein stability index was 2.99. Work on YARRHQAFADRDQSERQRHESQQL yielded a protein stability index of 3.81. In the case of YARPHQAFADRDQSERQRHESQQL, the protein stability index is reported as 4. YARYHYAFADRDQSERQRHESQQL gave a protein stability index of 2.54. YARYHSAFADRDQSERQRHESQQL showed a protein stability index of 1.77. YARYHRAFADRDQSERQRHESQQL showed a protein stability index of 2.26. In the case of YARYHFAFADRDQSERQRHESQQL, the protein stability index is reported as 3.06. Variant YARYHNAFADRDQSERQRHESQQL has a protein stability index of 2.28. In the case of YARYHGAFADRDQSERQRHESQQL, the protein stability index is reported as 2.64. Variant YARYHLAFADRDQSERQRHESQQL has a protein stability index of 2.02. For YARYHEAFADRDQSERQRHESQQL, the protein stability index was 2.62. With YARYHKAFADRDQSERQRHESQQL the protein stability index was 2.31. For YARYHHAFADRDQSERQRHESQQL, the protein stability index was 2.25. For YARYHAAFADRDQSERQRHESQQL, the protein stability index was 1.62. With YARYHVAFADRDQSERQRHESQQL the protein stability index was 2.69. In the case of YARYHCAFADRDQSERQRHESQQL, the protein stability index is reported as 2.02. Variant YARYHIAFADRDQSERQRHESQQL has a protein stability index of 2.24. YARYHWAFADRDQSERQRHESQQL showed a protein stability index of 2.08. YARYHMAFADRDQSERQRHESQQL gave a protein stability index of 2.32. In the case of YARYHPAFADRDQSERQRHESQQL, the protein stability index is reported as 2.69. Variant YARYHDAFADRDQSERQRHESQQL has a protein stability index of 2.73. Variant YARYHTAFADRDQSERQRHESQQL has a protein stability index of 2.34. With YARYHQAFMDRDQSERQRHESQQL the protein stability index was 2.21. With YARYHQAFFDRDQSERQRHESQQL the protein stability index was 2.58. Variant YARYHQAFKDRDQSERQRHESQQL has a protein stability index of 3.3. Variant YARYHQAFEDRDQSERQRHESQQL has a protein stability index of 3.57. For YARYHQAFHDRDQSERQRHESQQL, the protein stability index was 3.21. YARYHQAFGDRDQSERQRHESQQL showed a protein stability index of 2.6. Work on YARYHQAFLDRDQSERQRHESQQL yielded a protein stability index of 3.49. Work on YARYHQAFCDRDQSERQRHESQQL yielded a protein stability index of 1.67. In the case of YARYHQAFDDRDQSERQRHESQQL, the protein stability index is reported as 3.86. YARYHQAFIDRDQSERQRHESQQL showed a protein stability index of 3.12. For YARYHQAFNDRDQSERQRHESQQL, the protein stability index was 3.09. YARYHQAEADRDQSERQRHESQQL gave a protein stability index of 4.14. With YARYHQAVADRDQSERQRHESQQL the protein stability index was 3.92. With YARYHQASADRDQSERQRHESQQL the protein stability index was 3.86. For YARYHQALADRDQSERQRHESQQL, the protein stability index was 4.72. YARYHQAMADRDQSERQRHESQQL showed a protein stability index of 3.92. With YARYHQACADRDQSERQRHESQQL the protein stability index was 3.97. With YARYHQADADRDQSERQRHESQQL the protein stability index was 4.63. Work on YARYHQAKADRDQSERQRHESQQL yielded a protein stability index of 4.01. In the case of YARYHQATADRDQSERQRHESQQL, the protein stability index is reported as 3.66. YARYHQAWADRDQSERQRHESQQL gave a protein stability index of 1.4. YARYHQAAADRDQSERQRHESQQL showed a protein stability index of 4.75. YARYHQAGADRDQSERQRHESQQL gave a protein stability index of 3.83. YARYHQAHADRDQSERQRHESQQL showed a protein stability index of 4.58. YARYHQANADRDQSERQRHESQQL showed a protein stability index of 4.61. Work on YARYHQAQADRDQSERQRHESQQL yielded a protein stability index of 4. Variant YARYHQAIADRDQSERQRHESQQL has a protein stability index of 4.31. Work on YARYHQAPADRDQSERQRHESQQL yielded a protein stability index of 4.75. Variant YARYHQAYADRDQSERQRHESQQL has a protein stability index of 2.95. Work on YARYHQARADRDQSERQRHESQQL yielded a protein stability index of 3.73. YARYDQAFADRDQSERQRHESQQL showed a protein stability index of 4.57. YARYEQAFADRDQSERQRHESQQL showed a protein stability index of 4.54. For YARYFQAFADRDQSERQRHESQQL, the protein stability index was 2.5. YARYVQAFADRDQSERQRHESQQL gave a protein stability index of 2.87. Work on YARYIQAFADRDQSERQRHESQQL yielded a protein stability index of 3.29. Variant YARYCQAFADRDQSERQRHESQQL has a protein stability index of 2.39. With YARYWQAFADRDQSERQRHESQQL the protein stability index was 3.19. YARYPQAFADRDQSERQRHESQQL gave a protein stability index of 2.98. For YARYLQAFADRDQSERQRHESQQL, the protein stability index was 3.47. Work on YARYMQAFADRDQSERQRHESQQL yielded a protein stability index of 3.43. YARYKQAFADRDQSERQRHESQQL gave a protein stability index of 2.88. For YARYAQAFADRDQSERQRHESQQL, the protein stability index was 1.91. Variant YARYGQAFADRDQSERQRHESQQL has a protein stability index of 1.44. Work on YARYQQAFADRDQSERQRHESQQL yielded a protein stability index of 2.98. YARYNQAFADRDQSERQRHESQQL showed a protein stability index of 2.3. Variant YARYYQAFADRDQSERQRHESQQL has a protein stability index of 2.6. Work on YARYSQAFADRDQSERQRHESQQL yielded a protein stability index of 2.16. Variant YARYRQAFADRDQSERQRHESQQL has a protein stability index of 3. YARYTQAFADRDQSERQRHESQQL showed a protein stability index of 3.6.
